{"source": "patent US20220364173", "target": "T1, Bst 2.0 DNA polymerase (UniProt P52026)", "T1 sequence": "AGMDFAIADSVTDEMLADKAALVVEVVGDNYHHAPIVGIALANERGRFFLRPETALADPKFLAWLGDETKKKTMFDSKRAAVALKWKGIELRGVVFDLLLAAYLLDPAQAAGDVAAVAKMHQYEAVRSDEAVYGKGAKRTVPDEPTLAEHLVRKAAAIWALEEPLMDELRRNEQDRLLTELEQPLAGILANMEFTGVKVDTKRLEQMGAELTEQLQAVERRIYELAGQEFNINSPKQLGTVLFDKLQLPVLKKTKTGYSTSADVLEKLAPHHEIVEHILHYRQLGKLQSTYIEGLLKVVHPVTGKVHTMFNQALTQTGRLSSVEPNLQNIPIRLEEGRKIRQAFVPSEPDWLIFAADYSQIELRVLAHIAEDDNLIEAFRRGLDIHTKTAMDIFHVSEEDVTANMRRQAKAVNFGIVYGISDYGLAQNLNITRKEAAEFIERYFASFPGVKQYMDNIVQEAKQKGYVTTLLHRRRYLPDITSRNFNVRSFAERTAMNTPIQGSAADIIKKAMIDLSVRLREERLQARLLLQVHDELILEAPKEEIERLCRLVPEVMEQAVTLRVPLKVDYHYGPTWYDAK", "conditions": "N6-allyl-N6-methyladenosine at centre of NNANN, I2-cyclized; mutation rate on all DRACH motifs during reverse transcription; MgSO4, PEG 4000, 37 C", "data": [{"sequence": "UCGACGUNNANNGGCAUUGCU [NNam6ANN probe]", "values": [{"measurement": "activity", "value": "> 25", "unit": "%"}]}]}
